system: Escherichia coli TOP10; experiment: shrunken log2 fold change of peptide-encoding DNA abundance (4.5 h post-induction vs induction); higher = less antimicrobial activity (less host growth inhibition); conditions: time post-induction: 4.5 h; library: site-saturation at positions 5, 18, 19, 20
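Also: peptides expressed intracellularly from a pBAD plasmid library in pooled LB shake-flask culture, induced with 0.3% L-arabinose, DNA abundance read by NGS, three biological replicates, DESeq2 with apeglm shrinkage.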

Sequence | shrunken log2 fold change
RRIRFRPPRLPRPRPRPCQIPRP | -0.0143
RRIRSRPPRLPRPRPRPPPAPRP | 1.04
RRIRQRPPRLPRPRPRPHNLPRP | -0.183
RRIRPRPPRLPRPRPRPPDTPRP | 0.148
RRIRSRPPRLPRPRPRPYVMPRP | -0.653
RRIRARPPRLPRPRPRPHQMPRP | -0.066
RRIRLRPPRLPRPRPRPAMVPRP | 0.0527
RRIRRRPPRLPRPRPRPCINPRP | 2.42
RRIRYRPPRLPRPRPRPAPFPRP | -0.11
RRIRPRPPRLPRPRPRPQFKPRP | 0.0824
RRIRYRPPRLPRPRPRPTHAPRP | -0.0504
RRIRYRPPRLPRPRPRPYSPPRP | -0.0311
RRIRKRPPRLPRPRPRPKYWPRP | 0.255
RRIRWRPPRLPRPRPRPEIPPRP | -0.142
RRIRVRPPRLPRPRPRPFCGPRP | -0.0559
RRIRLRPPRLPRPRPRPSWPPRP | 0.00705
RRIRFRPPRLPRPRPRPNAKPRP | -0.00228
RRIRDRPPRLPRPRPRPMICPRP | -0.0307
RRIRKRPPRLPRPRPRPIVCPRP | -0.00674
RRIRRRPPRLPRPRPRPEVRPRP | 0.176
RRIRHRPPRLPRPRPRPWYEPRP | -1.06
RRIRHRPPRLPRPRPRPEAMPRP | -0.00857
RRIRHRPPRLPRPRPRPWKGPRP | -0.0165
RRIRKRPPRLPRPRPRPECVPRP | 1.69
RRIRYRPPRLPRPRPRPPPIPRP | 0.0596

Sequence | shrunken log2 fold change
RRIRTRPPRLPRPRPRPRPCPRP | -0.0153
RRIRCRPPRLPRPRPRPYQCPRP | -0.133
RRIRWRPPRLPRPRPRPYGAPRP | -0.0532
RRIRSRPPRLPRPRPRPPPPPRP | 1.03
RRIRLRPPRLPRPRPRPKIQPRP | -0.131
RRIRNRPPRLPRPRPRPYAWPRP | -0.141
RRIRIRPPRLPRPRPRPARQPRP | -0.0037
RRIRERPPRLPRPRPRPYTPPRP | -1
RRIRERPPRLPRPRPRPGAPPRP | 0.301
RRIRGRPPRLPRPRPRPKPRPRP | 1.16
RRIRWRPPRLPRPRPRPQFSPRP | 0.053
RRIRKRPPRLPRPRPRPITTPRP | -0.174
RRIRPRPPRLPRPRPRPWSDPRP | -0.267
RRIRERPPRLPRPRPRPNYVPRP | -0.931
RRIRSRPPRLPRPRPRPGAKPRP | 0.513
RRIRFRPPRLPRPRPRPNMLPRP | -0.669
RRIRVRPPRLPRPRPRPARGPRP | 0.681
RRIRHRPPRLPRPRPRPFCWPRP | 0.252
RRIRHRPPRLPRPRPRPYWEPRP | -0.238
RRIRQRPPRLPRPRPRPPQTPRP | 0.33
RRIRSRPPRLPRPRPRPWQKPRP | 0.14
RRIRSRPPRLPRPRPRPTVPPRP | 0.0372
RRIRSRPPRLPRPRPRPLACPRP | 0.268
RRIRTRPPRLPRPRPRPIGGPRP | -0.000462
RRIRVRPPRLPRPRPRPVIVPRP | -0.349

Sequence | shrunken log2 fold change
RRIRARPPRLPRPRPRPGVAPRP | 1.05
RRIRCRPPRLPRPRPRPDEKPRP | 0.118
RRIRFRPPRLPRPRPRPLNPPRP | -0.1
RRIRCRPPRLPRPRPRPTKPPRP | 0.531
RRIRRRPPRLPRPRPRPFGGPRP | 0.0433
RRIRIRPPRLPRPRPRPTKSPRP | -0.141
RRIRPRPPRLPRPRPRPRSSPRP | 0.151
RRIRQRPPRLPRPRPRPVHEPRP | 0.536
RRIRMRPPRLPRPRPRPTMQPRP | 0.566
RRIRFRPPRLPRPRPRPAMYPRP | -0.246
RRIRMRPPRLPRPRPRPYVMPRP | -0.0161
RRIRVRPPRLPRPRPRPPVKPRP | -0.112
RRIRHRPPRLPRPRPRPHPSPRP | 0.0305
RRIRQRPPRLPRPRPRPIYDPRP | -0.213
RRIRARPPRLPRPRPRPPGYPRP | 0.365
RRIRNRPPRLPRPRPRPGCSPRP | 0.121
RRIRTRPPRLPRPRPRPIYGPRP | -0.0121
RRIRGRPPRLPRPRPRPDGLPRP | 0.053
RRIRRRPPRLPRPRPRPYARPRP | 0.0203
RRIRTRPPRLPRPRPRPLFVPRP | -0.382
RRIRSRPPRLPRPRPRPQTDPRP | -0.0826
RRIRFRPPRLPRPRPRPDGQPRP | -0.0411
RRIRVRPPRLPRPRPRPMNCPRP | 0.0359
RRIRNRPPRLPRPRPRPQAHPRP | -0.163
RRIRARPPRLPRPRPRPCGAPRP | 0.737

Source: the supplement of paper PMC9112550, “Optimization of the antimicrobial peptide Bac7 by deep mutational scanning” (BMC Biology, 2022)
